Values of other authors, collected in patent US7759315B2, “Treatment of inflammatory conditions of the intestine” (CSL Behring AG, priority 2005, dated 2010).
Non-standard residues stand in square brackets, D forms with d. No end group written: not given here. Nal = naphthylalanine (source code Z); Aib = CC(C)(N)C(=O)O

What was measured:
LCAT = target: T1, LCAT (Homo sapiens, UniProt P04180)
T1 sequence (P04180 25-440): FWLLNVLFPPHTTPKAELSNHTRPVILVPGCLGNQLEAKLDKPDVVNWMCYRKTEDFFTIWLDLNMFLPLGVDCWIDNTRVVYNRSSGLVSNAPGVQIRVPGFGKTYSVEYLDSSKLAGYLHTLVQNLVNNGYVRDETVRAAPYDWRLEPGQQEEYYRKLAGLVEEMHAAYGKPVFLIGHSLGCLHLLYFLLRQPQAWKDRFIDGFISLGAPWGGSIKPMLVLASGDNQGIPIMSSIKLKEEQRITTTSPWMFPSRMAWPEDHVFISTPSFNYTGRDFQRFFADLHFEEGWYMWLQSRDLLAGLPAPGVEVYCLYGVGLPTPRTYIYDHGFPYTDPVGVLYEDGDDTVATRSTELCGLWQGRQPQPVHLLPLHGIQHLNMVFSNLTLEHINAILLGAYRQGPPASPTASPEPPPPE

[1] = percent helicity; for He (%): micelles

| Substance | ACTIVITY (%) LCAT (LCAT) | He (%) free ([1]; free peptide) | He (%) [1] |
| --- | --- | --- | --- |
| PVLDWFRELLNELLEALKQKLK [Peptide 35] | 31% | 49 (sp) % | 59% |
| PVLDLFRELLEELQKKLK [Peptide 220] | 22% | – | 64% |
| P~LDLFRELLNELLEALKQKLK (PLDLFRELLNELLEALKQKLK) [Peptide 85] | 7% | – | 61% |
| PVLELFENLLERGLDALQKKLK [Peptide 154] | 39% | – | 76% |
| pvldlfrellneXlealkqklk [Peptide 100] | 2% | – | 92% |
| PVLDLFRELLNELZEALKQKLK (PVLDLFRELLNEL[Nal]EALKQKLK; not fully specified (C-terminus)) [Peptide 27] | 44% | – | 92% |
| PVLDLFRELLNELLEALKQKLK^† [Peptide 30] | 38% | – | 90% |
| PVLDLFWELLNEXLEALKQKLK (PVLDLFWELLNE[Aib]LEALKQKLK; not fully specified (C-terminus)) [Peptide 51] | 20% | – | 82% |
| PVLDLFRELLNLXLEALKQKLK (PVLDLFRELLNL[Aib]LEALKQKLK; not fully specified (C-terminus)) [Peptide 95] | 5% | – | sp |
| PVLDLFLELLNEXLEALKQKLK (PVLDLFLELLNE[Aib]LEALKQKLK; not fully specified (C-terminus)) [Peptide 31] | 34% | – | 98% |
| DWLKAFYDKVFEKFKEFF [Peptide 245] | 4% | – | 77% |
| PVLDFFRELLNEXLEALKQKLK (PVLDFFRELLNE[Aib]LEALKQKLK; not fully specified (C-terminus)) [Peptide 25] | 51% | – | 82% |
| PVLDLFRELWEELKQKLK* (not fully specified (N-terminus, C-terminus); printed as PVLDLFRELWEELKQKLK*) [Peptide 199] | 76% | – | 77% |
| PVLELFENLLERLLDWLQKKLK [Peptide 160] | 28% | – | 73% |
| PVLDLFKELLNELLEALKQKLK [Peptide 7] | 83% | – | 89% |
| DWLKAFYDKVAEKLKEAF* (not fully specified (N-terminus, C-terminus); printed as DWLKAFYDKVAEKLKEAF*) [Peptide 240] | 10% | – | 68% |
| PVLDEFRELLNEXLEALKQKLK (PVLDEFRELLNE[Aib]LEALKQKLK; not fully specified (C-terminus)) [Peptide 91] | 6% | – | 100% |
| PVLDLFRELLEELKQKLK* (not fully specified (N-terminus, C-terminus); printed as PVLDLFRELLEELKQKLK*) [Peptide 193] | 96% | – | 88% |
| PVLDLFRELLNEGLEALKQKLK [Peptide 8] | 83% | – | 90% |

| Substance | ACTIVITY (%) LCAT (LCAT) | He (%) free ([1]; free peptide) | He (%) [1] |
| --- | --- | --- | --- |
| DWFKAFYDKVAEKFKEAF [Peptide 243] | 5% | – | 64% |
| PLLDLFRELLEELKQKLK* (not fully specified (N-terminus, C-terminus); printed as PLLDLFRELLEELKQKLK*) [Peptide 197] | 81% | – | 70% |
| PVLELFENLLERLGDALQKKLK [Peptide 148] | 75% | – | 76% |
| pvldefreklneXlealkgklk ([dP][dV][dL][dD][dE][dF][dR][dE][dK][dL][dN][dE][Aib][dL][dE][dA][dL][dK][dQ][dK][dL][dK]) [Peptide 44] | 25% | – | 86% |
| PVLDLFRELLWEXLEALKQKLK (PVLDLFRELLWE[Aib]LEALKQKLK; not fully specified (C-terminus)) [Peptide 50] | 21% | – | 84% |
| PVLDLFRNLLEELLEALQKKLK [Peptide 66] | 15% | – | 82% |
| PVLDLFRELWNELLEALKQKLK [Peptide 15] | 60% | – | 60% |
| PVLDLWRELLNEXLEALKQKLK (PVLDLWRELLNE[Aib]LEALKQKLK; not fully specified (C-terminus)) [Peptide 41] | 25% | – | 73% |
| PVLDAFRELLEALAQLKK [Peptide 223] | 8% | – | 56% |
| PVLDLFREKLNEXLEALKQKLK (PVLDLFREKLNE[Aib]LEALKQKLK; not fully specified (C-terminus)) [Peptide 46] | 23% | – | 86% |
| PVWDEFREKLNEXLEALKQKLK (PVWDEFREKLNE[Aib]LEALKQKLK; not fully specified (C-terminus)) [Peptide 52] | 20% | – | sp |
| PVLDLFRELLNELLQKLK [Peptide 209] | 47% | – | 71% |
| PVLDLFRELLNWXLEALKQKLK (PVLDLFRELLNW[Aib]LEALKQKLK; not fully specified (C-terminus)) [Peptide 101] | 2% | – | sp |
| PVLELFENLLERLLDALQKKLK [Peptide 146] | 86% | – | 100% |
| PVLDLFRELLNEXLEALKQKLK (PVLDLFRELLNE[Aib]LEALKQKLK; not fully specified (C-terminus)) [Peptide 6] | 80% | – | 93% |
| PVLDEFREKLNERLEALKQKLK [Peptide 109, [R^13]-Consensus 22-mer peptide (Anantharamaiah et al., 1990), reference compound] | 0% | – | 45% |
| PVLDLFRELLNELWEALKQKLK [Peptide 28] | 40% | – | 98% |
| PVLDEFREKLNEXWEALKQKLK (PVLDEFREKLNE[Aib]WEALKQKLK; not fully specified (C-terminus)) [Peptide 42] | 25% | – | 74% |
| PVLDLFRELLELLKQKLK [Peptide 217] | 30% | – | 78% |

| Substance | ACTIVITY (%) LCAT (LCAT) | He (%) free ([1]; free peptide) | He (%) [1] |
| --- | --- | --- | --- |
| PVLDLFNELLRELLEALQKKLK [Peptide 40] | 25% | – | 84% |
| EWLEAFYKKVLEKLKELF [Peptide 246, 18AM4 peptide (Rosseneu et al., WO93/25581; Corijn et al., 1993), reference compound] | 4% | – | 44% |
| PVLELFENWLERLLDALQKKLK [Peptide 162] | 27% | – | 83% |
| PAADAFREAANEAAEAAKQKAK [Peptide 105] | 1% | – | 28% |
| DWLKAPYDKVAEKLKEAF (DWLKAFYDKVAEKLKEAF) [Peptide 244, 18A peptide (Anantharamiah et al., 1985), reference compound] | 5% | – | 40% |
| PVLDEFRELLFEXLEALKQKLK (PVLDEFRELLFE[Aib]LEALKQKLK; not fully specified (C-terminus)) [Peptide 76] | 9% | – | 88% |
| EWLEAFYKKVLEKLKELF* (Ac-EWLEAFYKKVLEKLKELF-NH2) [Peptide 239, Ac-18AM4-C(O)NH2 peptide (Brasseur, 1993), reference compound] | 11% | – | 49% |
| PVLELFENLLERLLDAWQKKLK [Peptide 164] | 24% | – | 66% |
| PVLELFENLWERLLDALQKKLK [Peptide 149] | 63% | – | 54% |
| PVLDEFREKLNEALEALKQKLK [Peptide 94, [A^13]-Consensus 22-mer peptide (Anantharamaiah et al., 1990), reference compound] | 5% | – | 70% |
| PVLDZFRELLNELLEALKQKLK (PVLD[Nal]FRELLNELLEALKQKLK; not fully specified (C-terminus)) [Peptide 34] | 32% | – | 67% |
| KLKQKLAELLENLLERFLDLVP [Peptide 99] | 2% | – | 88% |
| PVLDLFRELLNELLEALKQKLK [Peptide 4] | 93% | – | 95% |
| LDDLLQKWAEAFNQLLKK [Peptide 237, Id-3 peptide (Labeur et al., 1997), reference compound] | 11% | – | 66% |
| PVLDEWREKLNEXLEALKQKLK (PVLDEWREKLNE[Aib]LEALKQKLK; not fully specified (C-terminus)) [Peptide 62] | 16% | – | 85% |
| EWLKAFYEKVLEKLKELF [Peptide 248, [Glu^1.8; Leu^5,11,17]; 18A peptide (Epand et al., 1987), reference compound] | 3% | – | 45% |
| EWLKAFYEKVLEKLKELF* (Ac-EWLKAFYEKVLEKLKELF-NH2) [Peptide 238, Ac-18AMOD-C(O)NH2 peptide (Epand et al., 1987), reference compound] | 19% | – | 72% |
| PVLDLFRELLNELLEWLKQKLK [Peptide 3] | 98% | – | 95% |
